Legend:
[1] = target: human uPA (form not stated) (human, UniProt P00749); assay: ELISA
[2] = target: full-length uPA (human urokinase plasminogen activator) (Homo sapiens, UniProt P00749, biotin (biotinylated antigen on streptavidin biosensors)); assay: BLI

binding result [1]: binds | binding result [2]: binds
B1: AB2 Fab (Fab, V domains shown)
VH: QLTQSGGGLVKPGRSLRLSCTASGFTFGDYAMSWVRQAPGKGLEWVGFVRSESAGATTEYAASVKGRFTISRDDSKSIAYLQMNALKTEDTAVYYCIRGANWNWGQGTLVTVSS
VL: EIVLTQSPLSLPVTPGEPASISCRSSQLMNRNGNNFLDWYLQKPGQSPQLLIYLGSNRAPGVPDRFSGSGSGTDFTLKISRVEAEDVGVYYCMARVEAPYSFGQGTKLEIR
